Measured values taken from the supplement of paper PMC10065799, “High-throughput profiling of sequence recognition by tyrosine kinases and SH2 domains using bacterial peptide display” (eLife, 2023).

Columns and labels:
AncSZ = assay: phosphorylation enrichment, bacterial display (enrichment ratio); higher = better substrate or ligand; peptides without Tyr show the background
EPHB1 = EPHB1 (UniProt P54762); assay: as above
EPHB2 = EPHB2 (UniProt P29323); assay: as above
FGFR1 = FGFR1 (UniProt P11362); assay: as above
FGFR3 = FGFR3 (UniProt P22607); assay: as above
Fer (mouse) = assay: as above
Fes = Fes (UniProt P07332); assay: as above
Fyn = Fyn (UniProt P06241); assay: as above
Hck = Hck (UniProt P08631); assay: as above
Jak2 = Jak2 (UniProt O60674); assay: as above
MERTK = MERTK (UniProt Q12866); assay: as above
c-Abl (mouse) = assay: as above
c-Src = assay: as above
Grb2 SH2 = Grb2 SH2 (UniProt P62993); assay: SH2 binding enrichment of the phosphorylated peptide, bacterial display (enrichment ratio); higher = better substrate or ligand; peptides without Tyr show the background
SHP2-C SH2 = assay: as above
c-Src SH2 = assay: as above
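Throughout, for SH2 binding enrichment of the phosphorylated peptide, bacterial display: peptide library displayed on the E. coli surface as eCPX fusions, selected cells deep-sequenced, score is each peptide's frequency after selection divided by its frequency in the input.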
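Throughout, for phosphorylation enrichment, bacterial display: 11-residue human phosphosite peptides and single-mutation variants displayed on the E. coli surface, counted by deep sequencing, each peptide's frequency after selection divided by its frequency in the unselected input library; frequency after pTyr selection over input frequency; kinase dosed for 20-30% of maximal phosphorylation in three min.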

MERTK, sequence (Q12866 whole entry, looked up): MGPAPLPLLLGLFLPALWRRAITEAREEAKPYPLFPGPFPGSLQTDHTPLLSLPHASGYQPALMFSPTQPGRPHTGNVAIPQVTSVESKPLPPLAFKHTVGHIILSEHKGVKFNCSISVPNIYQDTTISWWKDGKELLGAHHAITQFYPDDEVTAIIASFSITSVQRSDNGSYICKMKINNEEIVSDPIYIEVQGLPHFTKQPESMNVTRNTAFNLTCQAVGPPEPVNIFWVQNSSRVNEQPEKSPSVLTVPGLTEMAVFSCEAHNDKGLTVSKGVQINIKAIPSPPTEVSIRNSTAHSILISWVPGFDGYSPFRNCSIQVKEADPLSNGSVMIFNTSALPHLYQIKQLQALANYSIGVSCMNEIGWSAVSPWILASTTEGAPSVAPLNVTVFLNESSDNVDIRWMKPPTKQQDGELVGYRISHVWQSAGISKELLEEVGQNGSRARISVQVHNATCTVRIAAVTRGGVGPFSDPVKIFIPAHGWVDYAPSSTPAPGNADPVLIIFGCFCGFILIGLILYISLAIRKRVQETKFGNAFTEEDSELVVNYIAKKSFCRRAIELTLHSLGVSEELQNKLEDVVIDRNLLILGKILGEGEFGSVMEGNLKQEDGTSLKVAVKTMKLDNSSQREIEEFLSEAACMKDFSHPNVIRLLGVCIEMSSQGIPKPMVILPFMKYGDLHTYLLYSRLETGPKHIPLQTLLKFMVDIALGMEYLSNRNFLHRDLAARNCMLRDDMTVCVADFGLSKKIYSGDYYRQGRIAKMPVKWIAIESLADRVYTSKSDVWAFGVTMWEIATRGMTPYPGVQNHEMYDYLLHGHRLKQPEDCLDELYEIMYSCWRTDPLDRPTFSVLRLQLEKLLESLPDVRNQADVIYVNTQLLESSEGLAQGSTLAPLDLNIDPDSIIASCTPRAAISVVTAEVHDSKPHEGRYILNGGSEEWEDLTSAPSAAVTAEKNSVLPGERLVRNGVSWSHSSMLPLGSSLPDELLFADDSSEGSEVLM
Grb2 SH2, sequence (P62993 whole entry, looked up): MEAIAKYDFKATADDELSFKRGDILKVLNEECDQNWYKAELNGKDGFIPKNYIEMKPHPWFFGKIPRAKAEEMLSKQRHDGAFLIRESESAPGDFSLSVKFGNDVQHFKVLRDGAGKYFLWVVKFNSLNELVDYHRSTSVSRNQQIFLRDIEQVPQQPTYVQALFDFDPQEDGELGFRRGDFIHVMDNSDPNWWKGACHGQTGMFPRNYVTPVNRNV
EPHB2, sequence (P29323 whole entry, looked up): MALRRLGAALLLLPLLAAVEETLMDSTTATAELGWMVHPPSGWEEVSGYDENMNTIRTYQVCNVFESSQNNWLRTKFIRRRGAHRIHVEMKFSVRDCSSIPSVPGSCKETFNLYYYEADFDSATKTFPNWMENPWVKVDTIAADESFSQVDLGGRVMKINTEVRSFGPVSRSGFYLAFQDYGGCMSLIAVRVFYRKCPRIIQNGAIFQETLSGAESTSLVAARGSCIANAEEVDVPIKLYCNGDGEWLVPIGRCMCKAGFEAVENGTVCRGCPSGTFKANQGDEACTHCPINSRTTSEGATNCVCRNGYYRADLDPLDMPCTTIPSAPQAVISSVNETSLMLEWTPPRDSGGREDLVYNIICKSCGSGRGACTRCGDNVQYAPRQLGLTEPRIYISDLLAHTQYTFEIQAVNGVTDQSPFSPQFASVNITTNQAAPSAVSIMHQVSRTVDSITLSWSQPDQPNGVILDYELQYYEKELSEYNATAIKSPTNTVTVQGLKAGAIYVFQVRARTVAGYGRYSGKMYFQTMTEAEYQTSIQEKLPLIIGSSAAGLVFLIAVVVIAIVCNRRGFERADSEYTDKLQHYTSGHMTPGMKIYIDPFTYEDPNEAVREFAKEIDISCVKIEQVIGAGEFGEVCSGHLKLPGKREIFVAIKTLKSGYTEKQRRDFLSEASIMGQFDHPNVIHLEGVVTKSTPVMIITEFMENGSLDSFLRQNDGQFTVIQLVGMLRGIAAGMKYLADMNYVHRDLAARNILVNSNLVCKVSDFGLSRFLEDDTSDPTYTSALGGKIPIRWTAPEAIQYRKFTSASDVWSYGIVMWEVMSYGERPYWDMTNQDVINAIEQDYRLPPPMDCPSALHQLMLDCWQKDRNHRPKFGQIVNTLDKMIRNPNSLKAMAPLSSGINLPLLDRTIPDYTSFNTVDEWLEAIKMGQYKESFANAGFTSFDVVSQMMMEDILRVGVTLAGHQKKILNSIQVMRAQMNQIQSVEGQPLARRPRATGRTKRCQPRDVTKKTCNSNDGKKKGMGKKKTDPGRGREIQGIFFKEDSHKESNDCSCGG
Fes, sequence (P07332 whole entry, looked up): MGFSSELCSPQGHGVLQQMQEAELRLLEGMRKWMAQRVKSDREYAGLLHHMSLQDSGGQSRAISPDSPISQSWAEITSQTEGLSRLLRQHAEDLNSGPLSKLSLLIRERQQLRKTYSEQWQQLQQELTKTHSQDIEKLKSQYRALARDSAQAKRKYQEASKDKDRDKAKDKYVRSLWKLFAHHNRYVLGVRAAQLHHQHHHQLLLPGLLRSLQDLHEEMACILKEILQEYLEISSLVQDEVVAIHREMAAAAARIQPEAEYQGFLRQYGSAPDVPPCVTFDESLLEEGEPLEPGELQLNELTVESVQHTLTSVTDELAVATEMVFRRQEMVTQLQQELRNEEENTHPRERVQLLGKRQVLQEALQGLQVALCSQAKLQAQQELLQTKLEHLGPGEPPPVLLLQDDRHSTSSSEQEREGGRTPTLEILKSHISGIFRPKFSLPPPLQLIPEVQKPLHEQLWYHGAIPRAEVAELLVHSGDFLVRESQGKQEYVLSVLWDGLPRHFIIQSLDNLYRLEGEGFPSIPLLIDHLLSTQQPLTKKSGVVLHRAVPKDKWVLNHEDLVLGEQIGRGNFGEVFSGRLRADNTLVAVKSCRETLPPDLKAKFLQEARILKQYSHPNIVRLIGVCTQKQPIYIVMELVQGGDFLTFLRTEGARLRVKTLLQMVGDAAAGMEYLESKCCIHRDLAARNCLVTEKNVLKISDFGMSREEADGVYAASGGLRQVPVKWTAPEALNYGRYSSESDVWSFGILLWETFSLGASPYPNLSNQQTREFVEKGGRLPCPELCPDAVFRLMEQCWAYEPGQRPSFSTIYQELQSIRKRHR
Fyn, sequence (P06241 whole entry, looked up): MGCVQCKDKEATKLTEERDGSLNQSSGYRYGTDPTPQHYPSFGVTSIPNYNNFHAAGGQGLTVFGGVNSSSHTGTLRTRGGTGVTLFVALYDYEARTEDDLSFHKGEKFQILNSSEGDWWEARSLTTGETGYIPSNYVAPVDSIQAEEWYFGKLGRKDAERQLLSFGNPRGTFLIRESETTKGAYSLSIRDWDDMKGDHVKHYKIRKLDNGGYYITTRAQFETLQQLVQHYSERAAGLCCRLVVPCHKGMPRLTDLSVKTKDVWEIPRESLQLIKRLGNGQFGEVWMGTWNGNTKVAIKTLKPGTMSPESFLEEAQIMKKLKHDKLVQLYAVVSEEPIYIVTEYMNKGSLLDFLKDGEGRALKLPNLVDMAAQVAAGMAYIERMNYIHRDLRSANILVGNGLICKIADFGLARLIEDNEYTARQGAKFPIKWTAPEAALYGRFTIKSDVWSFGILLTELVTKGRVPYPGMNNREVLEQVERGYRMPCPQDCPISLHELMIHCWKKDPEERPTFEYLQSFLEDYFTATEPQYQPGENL
FGFR3, sequence (P22607 whole entry, looked up): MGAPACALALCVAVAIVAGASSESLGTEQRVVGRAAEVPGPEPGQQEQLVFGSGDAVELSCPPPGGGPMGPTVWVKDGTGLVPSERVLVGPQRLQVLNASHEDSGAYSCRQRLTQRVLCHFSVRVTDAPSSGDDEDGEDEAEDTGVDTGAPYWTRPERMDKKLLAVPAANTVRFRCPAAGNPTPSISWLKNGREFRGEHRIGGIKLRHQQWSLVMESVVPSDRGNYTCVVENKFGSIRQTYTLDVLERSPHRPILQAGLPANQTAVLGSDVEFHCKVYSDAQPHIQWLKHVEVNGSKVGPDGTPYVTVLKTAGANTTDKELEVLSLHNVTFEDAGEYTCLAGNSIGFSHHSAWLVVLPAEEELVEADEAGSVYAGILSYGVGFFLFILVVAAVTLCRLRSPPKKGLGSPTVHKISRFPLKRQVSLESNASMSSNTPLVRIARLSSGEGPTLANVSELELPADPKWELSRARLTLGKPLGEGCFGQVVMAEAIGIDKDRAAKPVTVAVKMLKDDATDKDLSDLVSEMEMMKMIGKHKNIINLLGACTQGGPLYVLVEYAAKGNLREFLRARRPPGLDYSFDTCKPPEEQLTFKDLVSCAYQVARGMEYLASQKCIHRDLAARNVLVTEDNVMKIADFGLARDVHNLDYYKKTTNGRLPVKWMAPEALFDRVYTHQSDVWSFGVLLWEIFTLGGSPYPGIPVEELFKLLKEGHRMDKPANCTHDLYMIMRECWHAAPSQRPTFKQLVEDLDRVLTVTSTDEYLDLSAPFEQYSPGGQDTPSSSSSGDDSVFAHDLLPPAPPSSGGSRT
Hck, sequence (P08631 whole entry, looked up): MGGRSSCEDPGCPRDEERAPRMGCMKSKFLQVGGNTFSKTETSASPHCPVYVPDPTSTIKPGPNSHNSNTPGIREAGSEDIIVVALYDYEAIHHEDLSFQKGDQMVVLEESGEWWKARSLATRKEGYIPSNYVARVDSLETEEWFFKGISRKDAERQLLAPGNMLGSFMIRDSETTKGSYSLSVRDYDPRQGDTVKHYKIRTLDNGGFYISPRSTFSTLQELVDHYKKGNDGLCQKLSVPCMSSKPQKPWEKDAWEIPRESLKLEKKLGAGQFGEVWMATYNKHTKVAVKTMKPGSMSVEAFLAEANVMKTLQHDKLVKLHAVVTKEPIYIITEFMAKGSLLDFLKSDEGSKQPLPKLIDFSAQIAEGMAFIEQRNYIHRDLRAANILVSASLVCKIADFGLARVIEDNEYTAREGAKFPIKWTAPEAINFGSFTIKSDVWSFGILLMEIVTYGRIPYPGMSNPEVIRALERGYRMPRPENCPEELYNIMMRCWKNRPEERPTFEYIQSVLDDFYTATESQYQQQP

Sequence | phosphorylation enrichment (AncSZ) | phosphorylation enrichment (EPHB1) | phosphorylation enrichment (EPHB2) | phosphorylation enrichment (FGFR1) | phosphorylation enrichment (FGFR3) | phosphorylation enrichment (Fer (mouse)) | phosphorylation enrichment (Fes) | phosphorylation enrichment (Fyn) | phosphorylation enrichment (Hck) | phosphorylation enrichment (Jak2) | phosphorylation enrichment (MERTK) | phosphorylation enrichment (c-Abl (mouse)) | phosphorylation enrichment (c-Src) | SH2 binding enrichment (Grb2 SH2) | SH2 binding enrichment (SHP2-C SH2) | SH2 binding enrichment (c-Src SH2)
DFFDLYGGEKK [PTPN11_Y66_F71K_YF] | 1.17 | 0.511 | 0.79 | 0.562 | 0.772 | 0.566 | 1.38 | 1.32 | 2.81 | 1.16 | 0.499 | 0.827 | 2.26 | 0.994 | 0.86 | 0.601
NVQIVYKPVDL [MAPT_Y627_S622N] | 0.955 | 0.507 | 0.492 | 0.532 | 0.648 | 0.502 | 0.903 | 0.414 | 0.477 | 0.796 | 0.354 | 0.723 | 0.415 | 0.982 | 0.738 | 0.58
MFDKEYFSVHN [MET_Y1234_YF] | 1.31 | 0.605 | 0.566 | 1.84 | 1.31 | 0.451 | 1.03 | 0.488 | 0.513 | 1.46 | 0.393 | 0.782 | 0.632 | 0.746 | 0.713 | 0.548
LINPKYSVEEE [PCDH19_Y27_L25P] | 1.8 | 1.06 | 0.986 | 0.753 | 1.36 | 0.977 | 2.28 | 0.797 | 0.55 | 1.65 | 0.836 | 1.39 | 0.608 | 1.92 | 0.548 | 0.786
RRGMPYGGHGD [TGM1_Y312_R315H] | 0.572 | 0.414 | 0.624 | 0.758 | 0.472 | 0.582 | 0.653 | 0.706 | 0.52 | 0.377 | 0.465 | 0.357 | 0.434 | 0.97 | 0.764 | 0.415
DAGTDYVGISR [FREM2_Y2061] | 0.606 | 0.445 | 0.492 | 0.541 | 0.621 | 0.459 | 0.64 | 0.482 | 0.545 | 0.496 | 0.414 | 0.54 | 0.459 | 0.938 | 0.758 | 0.481
CRPPFYHRNCM [HGD_Y334_F329C_YF] | 0.913 | 0.474 | 0.555 | 0.435 | 0.635 | 0.375 | 0.776 | 0.492 | 0.48 | 0.606 | 0.452 | 0.58 | 0.901 | 1.27 | 1.4 | 1.36
KGELCYMHSRV [ABCD1_Y281_R280C] | 0.813 | 0.597 | 0.581 | 0.479 | 0.682 | 0.449 | 0.757 | 0.505 | 0.485 | 0.568 | 0.563 | 0.43 | 0.402 | 1.31 | 0.883 | 0.632
CEQELYSQLVY [WAS_Y102_W97C] | 1.9 | 4.86 | 5.74 | 3.8 | 3.67 | 11.2 | 1.81 | 6.54 | 6.75 | 1.22 | 5.03 | 1.14 | 5.28 | 0.731 | 0.556 | 0.518
HAEERYGKELV [PSTPIP1_Y53_Q48H] | 1.26 | 0.881 | 0.806 | 1.09 | 1.02 | 0.732 | 1.26 | 0.614 | 1.02 | 1.06 | 0.382 | 0.688 | 0.569 | 0.755 | 0.7 | 0.362
RLLREYQELMN [KRT75_Y434] | 0.759 | 0.691 | 0.613 | 0.785 | 0.583 | 0.465 | 0.817 | 0.746 | 0.458 | 1.11 | 0.376 | 0.67 | 0.421 | 1.04 | 0.995 | 3.41
VDTFWYKLLKR [EPM2A_Y86_F88L] | 0.971 | 0.493 | 0.548 | 0.439 | 0.644 | 0.456 | 1.06 | 0.372 | 0.331 | 0.937 | 0.342 | 0.748 | 0.347 | 1.04 | 0.66 | 0.646
NQNIGYELGHR [KCNN3_Y268_K269E] | 0.496 | 0.449 | 0.318 | 0.343 | 0.403 | 0.289 | 0.486 | 0.528 | 0.37 | 0.348 | 0.276 | 0.425 | 0.305 | 0.892 | 0.683 | 0.672
MIAIRYSHSRR [ACOXL_Y260_T255M] | 0.875 | 0.539 | 0.465 | 0.377 | 0.518 | 0.324 | 0.487 | 0.444 | 0.43 | 0.434 | 0.353 | 0.473 | 0.426 | 0.959 | 0.652 | 0.56
LTTEVYFPSIK [C5orf64_Y60_A57T] | 0.946 | 0.436 | 0.628 | 0.775 | 0.661 | 0.482 | 0.895 | 0.77 | 0.541 | 0.703 | 0.562 | 0.766 | 0.563 | 0.911 | 0.885 | 0.564
KNEKVYTRHGV [FLOT1_Y56_S52N] | 0.514 | 0.243 | 0.33 | 0.352 | 0.356 | 0.316 | 0.487 | 0.355 | 0.344 | 0.392 | 0.375 | 0.435 | 0.357 | 0.998 | 0.749 | 0.585
